Reference: patent US20050192282A1, “Chemokine inhibiting piperazine derivatives and their use to treat multiple myeloma” (Schering Aktiengesellschaft, priority 2004, published 2005)
Entries after “also recorded” stand apart in the source; their conditions may differ.

T1: Human CCR1 (Homo sapiens, UniProt P32246)
T1 sequence (P32246 1-355): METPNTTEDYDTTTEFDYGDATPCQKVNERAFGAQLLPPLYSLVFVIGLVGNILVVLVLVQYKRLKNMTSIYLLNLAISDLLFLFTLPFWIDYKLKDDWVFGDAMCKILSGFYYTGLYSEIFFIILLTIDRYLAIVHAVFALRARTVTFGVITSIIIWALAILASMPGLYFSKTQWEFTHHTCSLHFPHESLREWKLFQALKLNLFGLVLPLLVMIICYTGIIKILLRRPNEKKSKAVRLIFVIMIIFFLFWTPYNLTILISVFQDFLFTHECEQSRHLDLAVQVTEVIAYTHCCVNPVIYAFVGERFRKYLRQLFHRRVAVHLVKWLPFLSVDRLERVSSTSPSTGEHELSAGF


Tests used:
[1] = target: T1, Human CCR1; conditions: cited from earlier work
[2] = tested on: β1 integrin mRNA expression in MM.1S human Myeloma cells; assay: RT-PCR analysis of β1 integrin mRNA expression in MM.1S myeloma cells cocultured with ST2 stromal cells; assay type: cell-based; conditions: MM.1S cocultured with ST2; treated with 1 ng/ml of rhMIP-1a, 12 hours

Molecule	ability to signal through human CCR1 [1]	β1 integrin mRNA expression levels [2]
MCP-1: human chemokine binding CCR1 with low affinity	neither ligand is able to signal	
MIP-1β: human chemokine binding CCR1 with low affinity (protein, UniProt P13236 24-92, looked up) C-C motif chemokine 4: APMGSDPPTACCFSYTARKLPRNFVVDYYETSSLCSQPAVVFQTKRSKQVCADPSESWVQEYVYDLELN	neither ligand is able to signal	
MIP-1α: human CC chemokine, ligand for CCR1 and CCR5; recombinant form used as stimulus (protein, UniProt P10147 24-92, looked up) C-C motif chemokine 3: SLAADTPTACCFSYTSRQIPQNFIADYFETSSQCSKPGVIFLTKRSRQVCADPSEEWVQKYVSDLELSA		significantly increased; also recorded: significantly enhanced
